Broadly, the stoichiometry N is the number of molecules, sites or subunits per partner or assembly. As usually defined, the Kd is the equilibrium constant for the complex coming apart. Low readings indicate tighter binding, high ones weaker binding.

The values that follow come from article PMC11582626 (Nature Communications, 2024).

The target in assay [1] is RSV A2 prefusion-stabilized F glycoprotein variant DS-Cav1 (respiratory syncytial virus strain A2). Kind of assay: cryo-EM structure.
In assay [2] the target is RSV B18537 prefusion-stabilized F glycoprotein variant sc9-10 DS-Cav1 (respiratory syncytial virus strain B18537). Kind of assay: cryo-EM structure.
Assay [3] deals with h5B11-YTE, h5B11 with the YTE mutation (M252Y/S254T/T256E) in the Fc region (human). As to the kind of experiment: SPR.
For assay [4], the target named is RSV B18537 prefusion-stabilized F glycoprotein variant DS-Cav1 (respiratory syncytial virus strain B18537).
For assay [5] the target is unchanged. As to the kind of experiment: SPR. A general note: In SPR one partner is held on a chip, and binding of the other changes the refractive index at the surface.
The target of assay [6] is T1, RSV B18537 prefusion-stabilized F glycoprotein variant DS-Cav1 (Human respiratory syncytial virus B, …, stabilised).
T1 chain 1: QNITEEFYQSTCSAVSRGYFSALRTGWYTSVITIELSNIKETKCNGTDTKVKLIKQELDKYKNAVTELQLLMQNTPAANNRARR
T1 chain 2: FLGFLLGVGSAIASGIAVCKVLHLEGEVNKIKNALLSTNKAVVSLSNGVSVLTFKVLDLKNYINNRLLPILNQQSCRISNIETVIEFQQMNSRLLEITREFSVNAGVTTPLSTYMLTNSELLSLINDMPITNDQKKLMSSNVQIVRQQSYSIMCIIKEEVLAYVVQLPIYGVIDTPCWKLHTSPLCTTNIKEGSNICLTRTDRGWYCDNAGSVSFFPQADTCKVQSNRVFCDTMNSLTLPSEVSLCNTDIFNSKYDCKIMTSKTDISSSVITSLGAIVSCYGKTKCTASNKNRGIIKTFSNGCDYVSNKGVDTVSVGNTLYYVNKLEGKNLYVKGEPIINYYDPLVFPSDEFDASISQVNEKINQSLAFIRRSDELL
As to the kind of experiment: SPR.

Assay [7] concerns the target RSV A2 post-fusion F protein (Human respiratory syncytial virus A, …, UniProt P03420). Kind of assay: ELISA.
Assay [8] has as its target RSV B18537 post-fusion F protein (Human respiratory syncytial virus B, …, UniProt P13843). Kind of assay: ELISA. (ELISA stands for enzyme-linked immunosorbent assay.)

Residue numbers refer to the chain shown, from its start.

RSV B18537 post-fusion F protein, sequence (P13843 whole entry, looked up, the tested form may be a part, one chain of several): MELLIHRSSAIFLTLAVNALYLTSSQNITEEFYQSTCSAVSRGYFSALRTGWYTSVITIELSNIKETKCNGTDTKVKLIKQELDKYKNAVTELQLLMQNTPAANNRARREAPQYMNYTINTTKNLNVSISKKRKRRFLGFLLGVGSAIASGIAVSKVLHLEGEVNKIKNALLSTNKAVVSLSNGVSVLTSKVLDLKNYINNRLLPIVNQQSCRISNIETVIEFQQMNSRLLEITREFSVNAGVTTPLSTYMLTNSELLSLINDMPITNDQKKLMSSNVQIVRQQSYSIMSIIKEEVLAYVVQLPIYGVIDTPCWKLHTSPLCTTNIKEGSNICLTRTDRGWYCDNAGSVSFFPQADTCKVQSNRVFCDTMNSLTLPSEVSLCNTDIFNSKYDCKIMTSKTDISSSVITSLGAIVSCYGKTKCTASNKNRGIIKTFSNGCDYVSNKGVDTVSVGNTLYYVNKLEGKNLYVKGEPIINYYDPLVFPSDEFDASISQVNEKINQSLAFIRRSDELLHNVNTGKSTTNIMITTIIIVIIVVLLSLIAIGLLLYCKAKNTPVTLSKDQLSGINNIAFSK
RSV A2 post-fusion F protein, sequence (P03420 whole entry, looked up, the tested form may be a part): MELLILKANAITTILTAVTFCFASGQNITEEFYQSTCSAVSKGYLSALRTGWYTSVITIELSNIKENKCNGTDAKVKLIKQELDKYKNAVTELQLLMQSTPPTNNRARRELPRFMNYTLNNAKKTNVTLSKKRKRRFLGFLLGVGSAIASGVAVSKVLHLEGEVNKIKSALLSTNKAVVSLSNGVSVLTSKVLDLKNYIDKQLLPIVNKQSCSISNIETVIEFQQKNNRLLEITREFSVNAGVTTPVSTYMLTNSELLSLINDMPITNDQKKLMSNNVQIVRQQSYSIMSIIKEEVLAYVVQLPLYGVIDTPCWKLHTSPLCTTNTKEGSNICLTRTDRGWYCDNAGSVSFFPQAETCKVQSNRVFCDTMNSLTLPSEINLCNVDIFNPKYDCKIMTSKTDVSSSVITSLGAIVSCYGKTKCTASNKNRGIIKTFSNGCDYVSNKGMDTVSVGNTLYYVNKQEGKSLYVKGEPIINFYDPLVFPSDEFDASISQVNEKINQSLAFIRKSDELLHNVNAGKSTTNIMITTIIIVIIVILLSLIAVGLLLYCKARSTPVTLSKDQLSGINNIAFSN

As for “RSV A2 prefusion-stabilized F glycoprotein variant DS-Cav1 (natural protein)”, in assay [1], the stoichiometry N is 3.
In assay [2], “RSV B18537 prefusion-stabilized F glycoprotein variant sc9-10 DS-Cav1 (natural protein)” returned a stoichiometry N of 3.
With “human neonatal FcR (hFcRn) (from UniProt P55899;P61769) (receptor)”, in assay [3], the fold increase in affinity over h5B11-WT came out at 8 fold.

B1: nirsevimab (biosimilar, human IgG1, kappa) (antibody, V domains shown)
VH: QVQLVQSGAEVKKPGSSVMVSCQASGGLLEDYIINWVRQAPGQGPEWMGGIIPVLGTVHYGPKFQGRVTITADESTDTAYMELSSLRSEDTAMYYCATETALVVSETYLPHYFDNWGQGTLVTVSS
VL: DIQMTQSPSSLSAAVGDRVTITCQASQDIVNYLNWYQQKPGKAPKLLIYVASNLETGVPSRFSGSGSGTDFSLTISSLQPEDVATYYCQQYDNLPLTFGGGTKVEIK
In turn, B1 yielded a plaque reduction neutralization of RSV B18537, IC50 in assay [4] of 0.0285 µg/mL.

B2: nirsevimab Fab (Fab, V domains shown)
VH: B1 VH
VL: B1 VL
For B2, the equilibrium dissociation constant (Kd) in assay [5] is above 800 nM.

B3: 5B11 Fab (antigen-binding fragment of murine 5B11) (Fab, V domains shown)
VH: QIQLVQSGPELKKPGETVKISCKASGYTFTDYSMHWLKQAPGKGLKWMGWITTETGEPTYADDFKGRFAFSLETSASTAYLQINNLKNEDTGIYFCARYYYGPFYWGQGTLVTVST
VL: DIQMTQSPASLSASVGETVTITCRSSGNIHNFLTWYQQKQGKSPQFLVYNAKTLADGVSSRFSGSGSGTQFSLKINSLQPEDFGIYYCQHFWTTPYTFGGGTKLEIK
B3 showed a dissociation constant (Kd) in assay [6] of 0.124 nM.

B4: 5B11, murine monoclonal antibody (mouse IgG2a, kappa) (antibody, V domains shown)
VH: B3 VH
VL: B3 VL
In the case of B4, the binding result in assay [7] and in assay [8] was “no binding” in each case.

B5: h5B11, humanized version of 5B11 (human IgG1, kappa) (antibody, V domains shown)
VH: B3 VH with E16A, T17S, E73D, N84S, N85S, N88A, I93V, T116S
VL: B3 VL with A9S, E17D, T18R, Q40P, S59P, S72T, K74T, N76S, L104V
In the case of B5, the binding result in assay [7] and in assay [8] was “no binding” each time.
